According to patent publication US20250235548A1, “ANTIBODY-DRUG CONJUGATES TARGETING NAPI2B AND METHODS OF USE” (Zymeworks BC Inc., priority 2022, published 2025):
Substitutions are numbered along the chain they refer to.

T1: NaPi2b expressed on IGROV-1 cells (Homo sapiens, UniProt O95436)
T1 construct: endogenous NaPi2b-expressing cancer cell lines IGROV-1 (ovarian carcinoma); endogenous in cells; host or cells: IGROV-1
T1 sequence (O95436 1-690): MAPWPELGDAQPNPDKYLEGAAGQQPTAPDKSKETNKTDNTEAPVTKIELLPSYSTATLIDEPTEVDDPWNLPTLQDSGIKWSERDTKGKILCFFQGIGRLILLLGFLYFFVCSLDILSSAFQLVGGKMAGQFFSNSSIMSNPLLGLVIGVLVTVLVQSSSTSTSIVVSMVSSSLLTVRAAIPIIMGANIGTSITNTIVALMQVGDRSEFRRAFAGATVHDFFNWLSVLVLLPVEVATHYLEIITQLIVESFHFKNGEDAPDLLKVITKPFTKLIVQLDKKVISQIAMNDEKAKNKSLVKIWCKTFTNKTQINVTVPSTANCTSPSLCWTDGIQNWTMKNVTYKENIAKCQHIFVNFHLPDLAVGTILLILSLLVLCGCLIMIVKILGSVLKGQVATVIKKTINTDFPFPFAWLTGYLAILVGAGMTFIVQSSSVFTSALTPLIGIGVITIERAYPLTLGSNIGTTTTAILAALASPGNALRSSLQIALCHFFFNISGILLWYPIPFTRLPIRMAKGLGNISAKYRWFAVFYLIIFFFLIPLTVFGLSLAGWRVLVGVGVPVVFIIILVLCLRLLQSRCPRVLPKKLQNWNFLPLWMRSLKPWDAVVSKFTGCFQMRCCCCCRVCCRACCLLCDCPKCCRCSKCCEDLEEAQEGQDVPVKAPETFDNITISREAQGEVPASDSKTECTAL

B1: v29453: "Representative humanized antibody variants ... of the mouse antibody" that specifically binds hNaPi2b (antibody, V domains shown)
VH: QVQLVQSGAEVKKPGASVKMSCKASGFTFTSYNVHWVRQAPGQGLEWIAAISPGNGDLSYAQKFQGRATLTVDRSTSTAYMELSSLRSEDTAVYYCARGRTGMGAVDYWGQGTLVTVSS
VL: DVQMTQSPSSLSASVGDRVTITCRASQDVYSYLNWYQQKPGKAVKLLIYYTSRLQSGVPSRFSGSGSGTDYTLTISSLQPEDFATYYCQQYNIFPWTFGQGTKLEIK
modifications: v29449, v29453, v29457 VH (H4); v29453, v29454, v29455, v29456 VL (L2)
B2: v29455: "Representative humanized antibody variants ... of the mouse antibody" that specifically binds hNaPi2b (antibody, V domains shown)
VH: B1 VH with M20V, A68V, L70M, R74T, A79V
VL: B1 VL
modifications: v29451, v29455, 29459 VH (H2); v29453, v29454, v29455, v29456 VL (L2)
B3: v29451: "Representative humanized antibody variants ... of the mouse antibody" that specifically binds hNaPi2b (antibody, V domains shown)
VH: B1 VH with M20V, A68V, L70M, R74T, A79V
VL: B1 VL with F83I
modifications: v29451, v29455, 29459 VH (H2); v29449, v29450, v29451, v29452 VL (L3)
B4: v29460: "Representative humanized antibody variants ... of the mouse antibody" that specifically binds hNaPi2b (antibody, V domains shown)
VH: B1 VH with M20V, I48M, A49G, A68V, L70M, V72R, R74T, A79V
VL: B1 VL with V2I, V44P, Y71F
modifications: v29452, v29456, v29460 VH (H1); v29457, v29458, v29459, v29460 VL (L1)
B5: v29458: "Representative humanized antibody variants ... of the mouse antibody" that specifically binds hNaPi2b (antibody, V domains shown)
VH: B1 VH with R74T
VL: B1 VL with V2I, V44P, Y71F
modifications: v29450, v29454, v29458 VH (H3); v29457, v29458, v29459, v29460 VL (L1)
B6: v29450: "Representative humanized antibody variants ... of the mouse antibody" that specifically binds hNaPi2b (antibody, V domains shown)
VH: B1 VH with R74T
VL: B1 VL with F83I
modifications: v29450, v29454, v29458 VH (H3); v29449, v29450, v29451, v29452 VL (L3)
B7: v29457: "Representative humanized antibody variants ... of the mouse antibody" that specifically binds hNaPi2b (antibody, V domains shown)
VH: B1 VH
VL: B1 VL with V2I, V44P, Y71F
modifications: v29449, v29453, v29457 VH (H4); v29457, v29458, v29459, v29460 VL (L1)
B8: v29454: "Representative humanized antibody variants ... of the mouse antibody" that specifically binds hNaPi2b (antibody, V domains shown)
VH: B1 VH with R74T
VL: B1 VL
modifications: v29450, v29454, v29458 VH (H3); v29453, v29454, v29455, v29456 VL (L2)
B9: v29449: "Representative humanized antibody variants ... of the mouse antibody" that specifically binds hNaPi2b (antibody, V domains shown)
VH: B1 VH
VL: B1 VL with F83I
modifications: v29449, v29453, v29457 VH (H4); v29449, v29450, v29451, v29452 VL (L3)

molecular target: T1, NaPi2b expressed on IGROV-1 cells; test: Cellular binding of bivalent antibodies by flow cytometry (Example 16); settings: AF647 GeoMean; 24 hours at 4° C.; NB = no cellular binding
Protocol: IGROV-1 cells express endogenous NaPi2b at a high level.
Briefly, cells were seeded at 50,000 cells/well in conical-bottom 96-well plates and treated with test antibody for 24 hours at 4° C. to prevent internalization. […] Following incubation and washing, fluorescence was detected by flow cytometry on a BD LSRFortessa™ Cell Analyzer (BD Biosciences, Franklin Lake, NJ) with 1,000 minimum events collected per well.

| Bmax, IGROV-1 | Molecule |
| --- | --- |
| 44,480 | B1 |
| 41,917 | B2 |
| 46,170 | B3 |
| 40,071 | B4 |
| 40,793 | B5 |
| 43,809 | B6 |
| 44,539 | B7 |
| 42,278 | B8 |
| 44,460 | B9 |

same assay, conditions: NB = no cellular binding

| Curve Hill Slope (h), IGROV-1 | Molecule |
| --- | --- |
| 1.2 | B1 |
| 1.1 | B2 |
| 1.1 | B3 |
| 1.2 | B4 |
| 1.1 | B5 |
| 1.2 | B6 |
| 1.0 | B7 |
| 1.0 | B8 |
| 1.3 | B9 |

tested on: not listed separately; test: Thermal stability by differential scanning calorimetry (Example 8); format: physicochemical; settings: DSC, 0.4 mg/mL in PBS, 20° C. to 100° C. at 60° C./hr
Protocol: The thermal stability of the humanized antibody variants was assessed by differential scanning calorimetry (DSC) as described below.
400 μL of purified samples primarily at concentrations of 0.4 mg/mL in PBS were used for DSC analysis with a VP-Capillary DSC (Malvern Panalytical Inc., Westborough, MA). At the start of each DSC run, 5 buffer blank injections were performed to stabilize the baseline, and a buffer injection was placed before each sample injection for referencing. Each sample was scanned from 20° C. to 100° C. at a 60° C./hr rate, with low feedback, 8 sec filter, 3 min pre-scan thermostat, and 70 psi nitrogen pressure. The resulting thermograms were referenced and analyzed using Origin 7 software (OriginLab Corporation, Northampton, MA) to determine melting temperature (Tm) as an indicator of thermal stability.

| Molecule | Fab Tm (° C.) [°C] |
| --- | --- |
| B1 | 78.9 |
| B2 | 81.5 |
| B3 | 83.0 |
| B4 | 80.3 |
| B5 | 81.6 |
| B6 | 81.0 |
| B7 | 80.5 |
| B8 | 79.7 |
| B9 | 80.0 |
